Laboratory results: patent publication US20240150423A1, “GLP-1 ANALOGUE-MODIFIED DIMERS WITH DIFFERENT CONFIGURATIONS, PREPARATION METHOD THEREOF, AND APPLICATION THEREOF IN TREATMENT OF TYPE II DIABETES” (Nanjing Finepeptide Biopharmaceutical Co.,Ltd, priority 2019, published 2024)
Residue numbers refer to the chain shown, from its start. Starred links: 1 amine or outer side, 2 acyl side, 3 side chain; linkers in the order of their positions; H or OH if unused. Groups on a side chain read outwards from the residue. γGlu = O=C(O)[C@H](CCC(=O)[*:2])N[*:1]; oleoyl = alkanoyl with 18 carbons

B1: 2G2 series 10: disulfide-linked homodimer of monomer SEQ ID NO: 10 (peptide)
chain 1: HAEGTFTSDVCSYLEGQAAXEFIAWLVRGRG
chain 2: B1 chain 1
modifications: not fully specified; disulfide-linked homodimer; Sequence is synthesized; (20)..(20) Xaa is 26Lys[N-e-(N-a-oleoyl-L-g-glutamyl)]; (31)..(31) N-terminal
B2: 2G2 series 18: disulfide-linked homodimer of monomer SEQ ID NO: 18 (peptide)
chain 1: B1 chain 1 with A2X
chain 2: B1 chain 1 with A2X
modifications: not fully specified; disulfide-linked homodimer; Sequence is synthesized; (2)..(2) Xaa is bAla; (20)..(20) Xaa is 26Lys[N-e-(N-a-oleoyl-L-g-glutamyl)]; (31)..(31) N-terminal
B3: 2G2 series 15: disulfide-linked homodimer of monomer SEQ ID NO: 15 (peptide)
chain 1: B1 chain 1 with A2X
chain 2: B1 chain 1 with A2X
modifications: not fully specified; disulfide-linked homodimer; Sequence is synthesized; (2)..(2) Xaa is bAib; (20)..(20) Xaa is 26Lys[N-e-(N-a-oleoyl-L-g-glutamyl)]; (31)..(31) N-terminal
B4: His-Ala-Glu-Gly-Thr-Phe-Thr-Ser-Asp-Val-Ser-Cys-Tyr-Leu-Glu-Gly-Gln-Ala-Ala-Lys[N-ϵ-(N-α-oleoyl-L-γ-glutamyl)]-Glu-Phe-Ile-Ala-Trp-Leu-Val-Arg-Gly-Arg-Gly-His-Gly-Glu-Gly-Thr-Phe-Thr-Ser-Asp-Val-Ser-S … (peptide)
chain: HAEGTFTSDVSCYLEGQAAK([γGlu-oleoyl])EFIAWLVRGRGHGEGTFTSDVSSYLEGQAAREFIAWLVRGRG-OH
B5: 2G9 series 70: disulfide-linked homodimer of monomer SEQ ID NO: 70 (peptide)
chain: HAEGTFTSDVSCYLEGQAAK([γGlu-oleoyl])EFIAWLVRGRGHGEGTFTSDVSSYLEGQAAREFIAWLVRGRG
modifications: also: disulfide-linked homodimer, feature at 62: C-terminal

System: Normal Kunming (KM) mice
Experiment: multiple OGTT (mOGTT): hypoglycemic duration after a single administration
Assay type: in vivo
Conditions: single injection at the same dose (1.126 nmol), subcutaneous
Excerpt: • 1. Methods: Normal Kunming (KM) mice (purchased from Guangdong Animal Center) were used for oral glucose tolerance test (OGTT) to obtain the hypoglycemic activity and durability of drug. […] The blood glucose meter and blood glucose test paper were from Bayer […]. The average blood glucose of each group was used as an evaluation standard: When the average blood glucose of experimental group was higher than that of the NaCl control group for two times, the measurement stopped and the hypoglycemic period compared to the blank control group was the effective duration. • 2. Results • 2.1 single OGTTs: after a single administration, the mice were orally administered glucose once and measured the blood glucose from the tail blood at 0, 10, 20, 40, 60 and 120 min. […] The duration of each monomer group was about 1⁄2-1⁄4 of the duration of its corresponding dimer group. […] Therefore, the 2G3 peptide was selected for treating type II diabetes (T2D) in vivo and subsequent experiments.

Row | Molecule | Hypoglycemic duration | Hypoglycemic (day) (monomeric peptides)
1 | B1 | 8 days | –
2 | B2 | 9 days | –
3 | B3 | 10 days | –
4 | B4 | – | 5 (G9 peptide) day
5 | B5 | 11 days | –
